# From IntAct's records for PubMed 22244754
# B1: Phosphatidylinositol 3,4,5-trisphosphate 5-phosphatase 2 (Homo sapiens), O15357-1 (parent)
# chain: MASACGAPGPGGALGSQAPSWYHRDLSRAAAEELLARAGRDGSFLVRDSESVAGAFALCVLYQKHVHTYRILPDGEDFLAVQTSQGVPVRRFQTLGELIGLYAQPNQGLVCALLLPVEGEREPDPPDDRDASDGEDEKPPLPPRSGSTSISAPTGPSSPLPAPETPTAPAAESAPNGLSTVSHDYLKGSYGLDLEAVRGGASHLPHLTRTLATSCRRLHSEVDKVLSGLEILSKVFDQQSSPMVTRLLQQQNLPQTGEQELESLVLKLSVLKDFLSGIQKKALKALQDMSSTAPPAPQPSTRKAKTIPVQAFEVKLDVTLGDLTKIGKSQKFTLSVDVEGGRLVLLRRQRDSQEDWTTFTHDRIRQLIKSQRVQNKLGVVFEKEKDRTQRKDFIFVSARKREAFCQLLQLMKNKHSKQDEPDMISVFIGTWNMGSVPPPKNVTSWFTSKGLGKTLDEVTVTIPHDIYVFGTQENSVGDREWLDLLRGGLKELTDLDYRPIAMQSLWNIKVAVLVKPEHENRISHVSTSSVKTGIANTLGNKGAVGVSFMFNGTSFGFVNCHLTSGNEKTARRNQNYLDILRLLSLGDRQLNAFDISLRFTHLFWFGDLNYRLDMDIQEILNYISRKEFEPLLRVDQLNLEREKHKVFLRFSEEEISFPPTYRYERGSRDTYAWHKQKPTGVRTNVPSWCDRILWKSYPETHIICNSYGCTDDIVTSDHSPVFGTFEVGVTSQFISKKGLSKTSDQAYIEFESIEAIVKTASRTKFFIEFYSTCLEEYKKSFENDAQSSDNINFLKVQWSSRQLPTLKPILADIEYLQDQHLLLTVKSMDGYESYGECVVALKSMIGSTAQQFLTFLSHRGEETGNIRGSMKVRVPTERLGTRERLYEWISIDKDEAGAKSKAPSVSRGSQEPRSGSRKPAFTEASCPLSRLFEEPEKPPPTGRPPAPPRAAPREEPLTPRLKPEGAPEPEGVAAPPPKNSFNNPAYYVLEGVPHQLLPPEPPSPARAPVPSATKNKVAITVPAPQLGHHRHPRVGEGSSSDEESGGTLPPPDFPPPPLPDSAIFLPPSLDPLPGPVVRGRGGAEARGPPPPKAHPRPPLPPGPSPASTFLGEVASGDDRSCSVLQMAKTLSEVDYAPAGPARSALLPGPLELQPPRGLPSDYGRPLSFPPPRIRESIQEDLAEEAPCLQGGRASGLGEAGMSAWLRAIGLERYEEGLVHNGWDDLEFLSDITEEDLEEAGVQDPAHKRLLLDTLQLSK
# Variants of: B1
# Conditions: with epha2_human EPHA2, P29317
# epha2_human EPHA2, P29317, sequence (P29317 whole entry): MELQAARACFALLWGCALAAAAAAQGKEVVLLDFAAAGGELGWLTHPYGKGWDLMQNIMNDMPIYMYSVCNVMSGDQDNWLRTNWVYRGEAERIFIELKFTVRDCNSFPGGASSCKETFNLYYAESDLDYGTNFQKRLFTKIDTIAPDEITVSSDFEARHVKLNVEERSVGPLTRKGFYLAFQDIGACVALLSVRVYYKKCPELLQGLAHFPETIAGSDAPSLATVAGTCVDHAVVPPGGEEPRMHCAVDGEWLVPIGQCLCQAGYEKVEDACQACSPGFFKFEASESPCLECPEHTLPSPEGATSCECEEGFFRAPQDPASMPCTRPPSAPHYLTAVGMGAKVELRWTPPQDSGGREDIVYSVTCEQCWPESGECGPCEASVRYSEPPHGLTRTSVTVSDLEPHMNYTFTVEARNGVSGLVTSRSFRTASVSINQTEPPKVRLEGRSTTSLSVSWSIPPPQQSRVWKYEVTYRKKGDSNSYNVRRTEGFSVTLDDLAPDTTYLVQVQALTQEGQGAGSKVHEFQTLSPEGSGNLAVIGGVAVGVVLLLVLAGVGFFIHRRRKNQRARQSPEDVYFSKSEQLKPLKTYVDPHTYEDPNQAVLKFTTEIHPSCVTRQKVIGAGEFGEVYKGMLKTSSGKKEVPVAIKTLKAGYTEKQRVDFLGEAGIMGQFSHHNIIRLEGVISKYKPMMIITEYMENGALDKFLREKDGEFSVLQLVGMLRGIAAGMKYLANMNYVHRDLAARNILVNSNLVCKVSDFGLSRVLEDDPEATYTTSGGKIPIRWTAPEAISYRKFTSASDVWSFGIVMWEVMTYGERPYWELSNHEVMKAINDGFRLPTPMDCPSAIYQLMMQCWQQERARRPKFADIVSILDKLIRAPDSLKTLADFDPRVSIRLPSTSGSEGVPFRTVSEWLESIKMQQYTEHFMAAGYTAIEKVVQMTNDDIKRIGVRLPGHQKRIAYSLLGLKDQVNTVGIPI
row,Variant,effect of a mutation on the interaction
1,D1223A;D1224A,disrupting interaction

# Variants of: B1
# Conditions: with epha2_human EPHA2, P29317
# Remark: another data set of the same source
row,Variant,effect of a mutation on the interaction
1,H1219S,increasing interaction
